Tests used:
human serum albumin = biological target: T1, human serum albumin (human, UniProt P02768 25-609); test: SPR (BIAcore 3000), HSA on CM5 chip, 2D3-peptide fusion injected
T1 construct: Bought protein (Sigma, 99% pure); also called HSA

cynomolgus serum albumin = biological target: T2, cynomolgus serum albumin (cynomolgus monkey, UniProt A2V9Z4 25-608); test: SPR (BIAcore 3000), 200 nM and 1 uM fusion injected on CM5 chip with ~900 RU cynomolgus serum albumin
T2 construct: also called cyno serum albumin
T2 sequence (A2V9Z4 25-608 limits assumed): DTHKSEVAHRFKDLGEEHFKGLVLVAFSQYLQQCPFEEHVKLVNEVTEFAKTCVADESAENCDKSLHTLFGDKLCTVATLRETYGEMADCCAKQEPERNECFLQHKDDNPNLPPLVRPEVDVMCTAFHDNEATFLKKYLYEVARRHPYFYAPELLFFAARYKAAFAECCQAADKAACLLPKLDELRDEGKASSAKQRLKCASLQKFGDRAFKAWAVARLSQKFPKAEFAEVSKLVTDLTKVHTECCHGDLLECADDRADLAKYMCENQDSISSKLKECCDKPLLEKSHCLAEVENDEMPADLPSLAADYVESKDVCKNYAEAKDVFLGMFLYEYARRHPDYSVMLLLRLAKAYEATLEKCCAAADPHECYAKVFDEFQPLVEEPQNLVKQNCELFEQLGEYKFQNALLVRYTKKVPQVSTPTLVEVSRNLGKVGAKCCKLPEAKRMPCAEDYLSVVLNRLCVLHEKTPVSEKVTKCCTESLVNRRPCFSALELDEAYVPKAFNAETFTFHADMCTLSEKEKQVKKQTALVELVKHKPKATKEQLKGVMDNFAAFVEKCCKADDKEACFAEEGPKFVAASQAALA

T1 sequence (P02768 25-609 limits assumed): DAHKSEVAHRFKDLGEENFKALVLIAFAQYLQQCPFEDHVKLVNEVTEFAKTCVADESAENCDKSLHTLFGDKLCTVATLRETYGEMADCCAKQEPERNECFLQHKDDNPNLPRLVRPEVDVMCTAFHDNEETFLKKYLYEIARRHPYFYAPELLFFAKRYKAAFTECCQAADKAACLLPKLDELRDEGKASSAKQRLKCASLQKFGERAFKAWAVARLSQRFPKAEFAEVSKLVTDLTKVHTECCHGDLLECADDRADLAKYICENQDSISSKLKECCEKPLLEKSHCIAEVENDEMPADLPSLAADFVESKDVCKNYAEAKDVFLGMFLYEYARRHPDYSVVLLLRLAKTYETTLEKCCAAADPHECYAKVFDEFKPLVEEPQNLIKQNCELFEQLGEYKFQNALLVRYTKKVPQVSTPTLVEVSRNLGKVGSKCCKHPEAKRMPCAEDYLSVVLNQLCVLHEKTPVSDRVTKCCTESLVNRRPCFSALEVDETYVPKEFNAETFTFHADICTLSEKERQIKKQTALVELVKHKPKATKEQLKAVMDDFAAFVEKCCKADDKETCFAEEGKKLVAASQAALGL

Binder	Kd (human serum albumin) [nM]	binding result (cynomolgus serum albumin)
EXPGMP 80B10 (as a fusion with the Nanobody 2D3) (other, Nanobody-peptide fusion, expressed in E. coli, purified by IMAC/SEC; also called 2D3-9GS-EXP80B10) EVQLVESGGSLVQPGGSLRLSCAASGFTFDDYAMSWVRQVPGKGLEWVSSINWSGTHTDYADSVKGRFTISRNNANNTLYLQMNSLKSEDTAVYYCAKNWRDAGTTWFEKSGSAGQGTQVTVSSGGGGSGGGSYWWERRDWDFDVFGGGTPAAAEQKLISEEDLNGAAHHHHHH	16	
5F7-9GS-EXP89D03-9GS-EXP89D03 (other, Fusion of Nanobody 5F7 with a tandem repeat of peptide 89D03; also called EXP486) EVQLVESGGGLVQAGGSLRLSCAASGITFSINTMGWYRQAPGKQRELVALISSIGDTYYADSVKGRFTISRDNAKNTVYLQMNSLKPEDTAVYYCKRFRTAAQGTDYWGQGTQVTVSSGGGGSGGGSWWEQDRDWDFDVFGGGTPGGGGSGGGSWWEQDRDWDFDVFGGGTP		binds

— patent WO2011095545A1 (dated 2011)
